Test results from patent US20230212305A1, “ANTI-ABCG2 ANTIBODIES AND USES THEREOF” (Kenjockety Biotechnology, Inc., priority 2020, published 2023).
Positions count from the first letter of the chain named.

T1: ABCG2 (Homo sapiens, UniProt Q9UNQ0)
T1 construct: expressed in transfected cells
T1 sequence (Q9UNQ0 1-655): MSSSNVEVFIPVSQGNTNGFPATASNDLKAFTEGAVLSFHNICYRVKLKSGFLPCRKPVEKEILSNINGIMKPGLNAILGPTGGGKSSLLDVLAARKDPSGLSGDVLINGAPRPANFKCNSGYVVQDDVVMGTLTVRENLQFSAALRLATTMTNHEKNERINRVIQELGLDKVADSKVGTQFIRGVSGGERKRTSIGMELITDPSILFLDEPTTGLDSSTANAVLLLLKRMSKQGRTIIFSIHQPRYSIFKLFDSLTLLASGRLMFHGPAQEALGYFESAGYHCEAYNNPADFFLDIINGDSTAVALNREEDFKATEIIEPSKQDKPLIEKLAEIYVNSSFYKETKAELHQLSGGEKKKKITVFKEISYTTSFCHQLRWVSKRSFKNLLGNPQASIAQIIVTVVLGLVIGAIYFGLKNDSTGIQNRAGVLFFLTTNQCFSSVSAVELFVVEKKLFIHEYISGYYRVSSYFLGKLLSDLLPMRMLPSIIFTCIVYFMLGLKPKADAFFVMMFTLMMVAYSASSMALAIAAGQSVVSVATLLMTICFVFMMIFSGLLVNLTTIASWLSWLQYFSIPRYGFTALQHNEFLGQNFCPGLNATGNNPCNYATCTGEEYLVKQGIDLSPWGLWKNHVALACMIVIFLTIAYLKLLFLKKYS

B1: G2.642 rat: anti-ABCG2 antibody raised in rat (antibody, V domains shown)
VH: QIQLVQSGAELVKPGASVKLSCKTSGFTFSSNYISWLRQKPRQSLEWIAWIYSGTGGTYYNQKFTGKAQLTIDTSSNTAYMQLSSLTSEDSAIYYCARHVGLRYWYFDVWGAGTSVTVSS
VL: DIVLTQSPASLTVSLGQRATISCRASESVDSNGNSFMHWYQQKPGQSPKVLIYRASNLESGVPARFSGSGSRTDFTLTINPVEADDVATYYCQQSNEDPWTFGGGTKLEIKREF
B2: G2.255 mouse: anti-ABCG2 antibody raised in mouse, listed in Table 2 (antibody, V domains shown)
VH: EVMLVESGGALVKPGGSLKLSCAASGFTFSNNAMSWVRQTPETRLEWVATITGGGSYTYYPDSVKGRFTISRDNARNTLYLQMSSLRSEDTATYYCASPDGNYEGVLAYWGQGTLVTVSA
VL: DIQMNQSPSSLSASLGDRVTISCSASQGISNYLNWYQQKPDGTIKLLIYYTSTLHSGVPSRFSGSGSGTDYSLTISNLEPEDIATYYCQHYSSLPWTFGGGTKLEIK
B3: G2.630 rat: anti-ABCG2 antibody raised in rat (antibody, V domains shown)
VH: EVQLVESGPGLVKPSQSLSLTCSVTGYTITSGYDWTWIRKFPGNKMEWMGYISYSGFTNYNPSLRSRISITRDTSKNQFFLQLNSVTTEDTATYYCTRTRGYNPFAYWGQGTLVTVSS
VL: DVVMTQSPSLLSASVGDRVTLSCKAGRNINNYLAWYQQKLGKAPKLLIYNTNSLQTGIPSRFSGSGSGTDFTLTISSLQPEDVATYFCQQYNSWTTFGSGTKLEIK
B4: G2.636 rat: anti-ABCG2 antibody raised in rat (antibody, V domains shown)
VH: EVKLVESGGGLVQPGRSLKLSCAASGFTFSRFYMAWVRQAPTKGLEWVAHISHGGDTTYYRDSVKGRFTISRDNAKSTLFLQMDSLRSEDTATYYCTTSAAPWNYVMDGWGLGASVTVSS
VL: DIVMTQSPSLLSASVGDRVTLTCKGSQNINNFLAWYQQKLGEAPKLLIYKTNSLHTGIPSRFSGSGSGTDYTLTISSLHSEDLATYYCYQYNNGYTFGAGTKLELK
B5: G2.629 rat: anti-ABCG2 antibody raised in rat (antibody, V domains shown)
VH: EVQLVESGGGLVQPGRSLKLSCAASGFIFSRFYMAWVRQAPTKGLEWVAYINTGGGTTYYRDSVKGRFTISRDNAKTTLYLQMDSLRSEDTATYYCTTLAAPWNYVMDAWGQGASVTVSSA
VL: B4 VL with I2V, I48T, A99P
B6: G2.641 rat: anti-ABCG2 antibody raised in rat (antibody, V domains shown)
VH: B4 VH with V5E
VL: B4 VL with V3Q
B7: G2.248 mouse: anti-ABCG2 antibody raised in mouse, listed in Table 2 (antibody, V domains shown)
VH: QVQLQQPGAELVKPGASVKLSCKTSGFTFSNSYISWLKQKPRQSLEWIAWIYAGTGGTNYNQKFTGKAQLTVDTSSSTAYMQLSSLTSEDSAIYYCATYGNFLYAMDNWGQGTSVTVSS
VL: DIQMKQSPASLSASVGETVTITCRASGNIHNYLAWYQQKQGKSPQLLVYNTKTLADGVPSRFSGSGSGTQYSLKINSLQPEDFGSYYCQHFWSTPWTFGGGTKLEIK
B8: G2.256 mouse: anti-ABCG2 antibody raised in mouse, listed in Table 2 (antibody, V domains shown)
VH: EVQLQQSGPELVKPGASLKISCKTFGYSFTGYYMHWVKQSPEKSLEWIGKIVPSTGGTTYNQKFKAKATLTVDKSSFTAYMQLKSLTSEDSAVYYCAREKVYGYDVYYFDYWGQGTTLTVSS
VL: DIVMSQSPATLSVTPGDRVSLSCRASQSISDYLHWYQQKSHESPRLLIKYASQSISGIPSRFSGSGSGSDFTLSINSVEPEDVGVYYCQNGHSFPWTFGGGTKLEIK

These molecules were tested against T1, ABCG2 (assay: not given). Details: not given.
Type: cell-based
Procedure: 293T_ABCG2_OX cells were washed several times and aliquoted into 96-well plates as 50 μl aliquots/well at a cell density of 2×10e6 cells per ml in phenol red-free DMEM. Cells were mixed with 50 μl antibodies or the small molecule inhibitors of ABCG2:-fumitremorgin C (FTC), or its tetracyclic analogue K0143, with a final concentration of 1 μM. Cells were then incubated in the presence of 2.5 μM Mitoxantrone 1 h at 37° C. The cells were subsequently washed twice and finally resuspended in […] PBS. Mitoxantrone fluorescence was measured using excitation at 635 nm and emission at 647 nm. Protocols was measuring efflux blockade are found in Szabo E, et al., PLoS One. 2018 Jan. 17; 13(1):e0190629; Deeken J F, et al., Mol Pharmacol. 2009 November; 76(5):946-56).

Molecule | Block Efflux
B1 | −
B2 | −
B3 | +
B4 | ++
B5 | +
B6 | ++
B7 | −
B8 | −

Each molecule was assayed on 293T_ABCG2_OX cells (assay: not given). Details: cell killing by topotecan on 293T_ABCG2_OX cells; viability relative to IgG control.
Type: cell-based, human
Procedure: Cytotoxicity Assays. The effect of antibodies on topotecan cytotoxicity was evaluated on 293T_ABCG2_OX cells, 293T cells stably transfected to express ABCG2. Cells were plated in 0.05 mL of Assay Media (DMEM+10% FBS) at 5000 cells/well in white, flat bottom 96-well tissue culture plates. Topotecan was prepared at 2× final assay concentration by serial dilution from 200 uM in assay media containing test antibodies or control antibodies at 100 ug/mL (2× final concentration), or Fumitremorgin C, a small molecule ABCG2 inhibitor at 20 uM (2× final concentration). An equivalent volume (0.05 mL) of the topotecan/antibody mixture was added to the 293T_ABCG2_OX cells in 96-well plates. The plates were then incubated at 37° C., in 5% CO2. After 72-96 hr plates were equilibrated to room temperature and cell viability assessed using Promega® CellTiter-Glo® Luminescent Cell Viability Assay according to the manufacturer's recommended protocol. Luminescence was measured on a Molecular Devices® FlexStation® 3 Multi-Mode Microplate Reader and data analyzed using GraphPad Prism 8.0 software. Half maximal inhibitory concentration (1050) is the concentration of drug (topotecan or other chemotherapy cytotoxic agent) where the response (cell growth) is reduced by 50%.

Molecule | Killing
B1 | − (≥75% of IgG control)
B2 | − (≥75% of IgG control)
B3 | + (viability ≥30% and <50% of IgG control)
B4 | +++ (viability <10% of IgG control)
B5 | + (viability ≥30% and <50% of IgG control)
B6 | ++ (viability ≥10% and <30% of IgG control)
B7 | − (≥75% of IgG control)
B8 | − (≥75% of IgG control)

The molecules below were run against T1, ABCG2 (assay: Flow cytometry binding to 293T cells overexpressing human ABCG2 (293T_ABCG2_OX)). Details: 293T_ABCG2_OX cells.
Parameters: key to Binding by FACS: binding=“+”; non-significant binding=“−”
Procedure: (§1) Cell Binding Assays. Antibody binding to cells was evaluated by flow cytometry. 293T cells stably transfected to express human or cynomolgus ABCG2 (293T_ABCG2_OX) were washed once in flow cytometry buffer (PBS+2% FBS+0.02% sodium azide), resuspended at 2×10^6 cells/mL in flow cytometry buffer, and dispensed into 96-well microtiter plates at 0.1 mL/well. Recombinant antibodies were added to cells at 5 ug/mL for initial binding confirmation, or serially diluted from 100 ug/mL in flow cytometry buffer. After incubating cells on ice for 30 min, cells were washed twice with flow cytometry buffer. Bound antibody was detected with PE-labeled F(ab′)2 fragment goat anti-human IgG (Jackson ImmunoResearch) and evaluated on an Attune NxT flow cytometer. EC50 is calculated to be the concentration of antibody that gives half maximal response.

Molecule | Binding by FACS
B1 | +
B2 | +
B3 | +
B4 | +
B5 | +
B6 | +
B7 | +
B8 | +

Same assay, conditions: in words; FIGS. 7-11, 21

Molecule | binding to 293T cells overexpressing human ABCG2
B4 | strong binding

The molecules below were run on Panc1/T300 cells (assay: Xenograft study with topotecan-resistant Panc1/T300 cells). Details: not given.
Type: in vivo
Procedure: PANC1 (ATCC, CRL-1469) is a pancreatic ductal epithelial carcinoma cell line. The topotectan-resistant Panc1/T300 cells were developed by continuously incubating PANC1 cells in the culture medium containing increasing concentration of topotecan of 25, 50, 100, 200 and 300 nM. […] The arrows indicate the dosing schedule.

Molecule | tumor volume, in combination with topotecan
B4 | efficacious in reducing tumor volume
B5 | efficacious in reducing tumor volume

These molecules were tested on cynomolgus ABCG2 (assay: Flow cytometry binding to 293T cells overexpressing cynomolgus ABCG2). Details: not given.
Parameters: key to Cynomolgus ABCG2 binding: binding=“+”; non-significant binding=“−”
Procedure: as §1

cynomolgus ABCG2, sequence (as listed by the source): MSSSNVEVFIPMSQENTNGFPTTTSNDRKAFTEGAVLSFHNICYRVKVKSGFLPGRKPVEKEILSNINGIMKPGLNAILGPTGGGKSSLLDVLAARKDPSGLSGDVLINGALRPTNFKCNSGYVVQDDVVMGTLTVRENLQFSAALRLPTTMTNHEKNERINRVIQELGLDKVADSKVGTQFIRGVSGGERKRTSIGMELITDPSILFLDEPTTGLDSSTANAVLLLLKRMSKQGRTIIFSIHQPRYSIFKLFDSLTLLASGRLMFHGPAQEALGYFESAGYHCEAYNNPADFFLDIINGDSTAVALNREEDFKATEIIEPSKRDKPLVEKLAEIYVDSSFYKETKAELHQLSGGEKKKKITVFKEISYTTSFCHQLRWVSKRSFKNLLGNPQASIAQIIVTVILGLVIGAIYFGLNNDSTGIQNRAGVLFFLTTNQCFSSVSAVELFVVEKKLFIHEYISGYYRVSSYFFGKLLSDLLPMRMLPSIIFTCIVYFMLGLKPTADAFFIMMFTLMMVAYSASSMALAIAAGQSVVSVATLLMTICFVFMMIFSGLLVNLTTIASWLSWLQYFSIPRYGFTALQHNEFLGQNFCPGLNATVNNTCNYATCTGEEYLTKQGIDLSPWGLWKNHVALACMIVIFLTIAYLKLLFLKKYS

Molecule | Cynomolgus ABCG2 binding
B1 | −
B2 | −
B3 | +
B6 | +
B7 | −
B8 | −

Same assay, conditions: in words; FIGS. 7-11, 21

Molecule | binding to 293T cells overexpressing cynomolgus ABCG2
B4 | strong binding
